Assay [1] deals with AP2 μ2 160-435 (UniProt Q96CW1). Description: FP displacement of FITC-ATG9A probe. As to conditions: reference: unphosphorylated peptide; sites Y781.
Assay [2] has the same target. Put plainly: fluorescence polarisation.
In assay [3] the target is FITC-labeled ACE2(775–790) peptide, pTyr781 (human). Put plainly: fluorescence polarisation.
Assay [4] deals with FITC-labeled ACE2(775–790) peptide, pSer783 (human). Put plainly: fluorescence polarisation.
For assay [5], the target named is FITC-labeled ACE2(775–790) peptide, unphosphorylated (human). Put plainly: fluorescence polarisation.
For assay [6], the target named is MAP1LC3A ATG8 (2–119) (human) (UniProt Q9H492). Put plainly: fluorescence polarisation.
In assay [7] the target is MAP1LC3C ATG8 (2–125) (human) (UniProt Q9BXW4). Description: fluorescence polarisation.
Assay [8] concerns the target MAP1LC3B ATG8 (2–119) (human) (UniProt Q9GZQ8). Put plainly: fluorescence polarisation.
Assay [9] deals with GABARAP ATG8 (2-115) (human) (UniProt O95166). Description: fluorescence polarisation.
Assay [10] deals with […]2 ATG8 (2–115) (human) (UniProt P60520). Description: fluorescence polarisation.

Among the data in article PMC7928716 are Ki and Kd values, retold here.

Sequence of […]2 ATG8 (2–115) (human) (P60520 2-115): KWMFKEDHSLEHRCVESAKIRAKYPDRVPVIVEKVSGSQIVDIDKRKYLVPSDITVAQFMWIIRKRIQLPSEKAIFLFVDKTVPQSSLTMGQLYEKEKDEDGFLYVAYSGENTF
Sequence of GABARAP ATG8 (2-115) (human) (O95166 2-115): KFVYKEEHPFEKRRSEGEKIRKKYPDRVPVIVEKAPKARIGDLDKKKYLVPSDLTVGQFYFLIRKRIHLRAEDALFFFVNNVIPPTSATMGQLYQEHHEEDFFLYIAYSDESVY
Sequence of MAP1LC3C ATG8 (2–125) (human) (Q9BXW4 2-125): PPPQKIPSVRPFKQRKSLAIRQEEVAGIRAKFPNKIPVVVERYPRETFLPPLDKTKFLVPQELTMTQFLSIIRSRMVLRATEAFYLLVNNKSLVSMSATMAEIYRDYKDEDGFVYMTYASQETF

For the substance “ACE2 775-790 (from UniProt Q9BYF1) pTyr781 peptide”, the inhibitory constant (Ki) entry in [1] is on record as “lost; reference 101 ± 5”.

In assay [2], “ACE2(775–790) peptide, unphosphorylated, unlabeled (displacing peptide)” gave an inhibition constant Ki of 101 µM.

Turning to “AP2 μ2 (160–435) (from UniProt Q96CW1 160-435) (domain or fragment)”, the figures for the dissociation constant Kd in assay [3], in assay [4] and in assay [5] were over 100 µM, 30 µM and 60 µM, respectively.

For “FYN SH2 (142–251) (from UniProt P06241 142-251) (domain or fragment)”, the Kd in assay [4] and in assay [5] was over 100 µM throughout.

As for “GABARAP ATG8 (2-115) (from UniProt O95166 2-115) (domain or fragment)”, the Kd in [3], in assay [4] and in assay [5] was over 100 µM in each case.

As to “MAP1LC3A ATG8 (2–119) (from UniProt Q9H492 2-119) (domain or fragment)”, the Kd in assay [3], in assay [4] and in [5] was over 100 µM each time.

Take “NCK1 SH2 (275–377) (from UniProt P16333 275-377) (domain or fragment)”: the Kd in assay [3], in [4] and in assay [5] was over 100 µM throughout.

In the case of integrin β3 tail peptide, pSer778, the Ki was 29.4 µM in [6], 16.1 µM in assay [7] and over 100 µM in assay [8].

As for integrin β3 tail peptide, pThr777, the inhibition constant (Ki) in assay [6] was over 100 µM; in assay [7] it was 73 µM; in [8] it was over 100 µM; in assay [9], 47 µM.

As for integrin β3 tail peptide, pThr779, the Ki in assay [10] is over 100 µM; in [6] it was over 100 µM; in [7] it was 82 µM; in [8], over 100 µM.

Regarding “integrin β3 tail peptide, pThr779/pTyr785”, the Ki in assay [6] is 8.5 µM; in assay [7], 8 µM; in assay [8], 15 µM; in [9], 17.8 µM.

Turning to integrin β3 tail peptide, pTyr785, the Ki in assay [10] was 89 µM; in assay [6], 38 µM; in [7], 83 µM; in assay [8], 81 µM.

For “integrin β3 tail peptide, unphosphorylated”, the inhibition constant Ki in [10], in assay [6], in [7], in [8] and in [9] was over 100 µM throughout.
